Reference: patent US20180230457A1 (published 2018)
Values belong to the binder of their own block, whether it stands above or below them.

How the values were obtained:
[1] = molecular target: T1, bovine pancreatic RNase A (bovine, UniProt P61823 27-150); experiment: ITC, 25 C, no metal
T1 construct: mature; Commercial purified protein; Used unmodified in ITC and as plate coat; biotinylated only for phage selection
T1 sequence (looked up): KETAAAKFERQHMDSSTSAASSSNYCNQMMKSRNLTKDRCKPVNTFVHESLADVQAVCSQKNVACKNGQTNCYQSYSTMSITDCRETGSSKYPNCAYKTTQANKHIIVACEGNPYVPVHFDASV
Procedure: (§1) ITC experiments were performed using a MicroCal VP-ITC (MicroCal, LLC, Northampton, Mass.). All experiments were performed at 25° C. Proteins were dialyzed against the desired experimental buffer, which included PBS (20 mM NaPhosphate, 150 mM NaCl pH 7.4), TBS (20 mM Tris-HCl, 150 mM NaCl pH 7.4) and TBS-E (20 mM Tris, 150 mM NaCl, 1 mM EDTA, pH 7.4). For direct titration of NiCl₂ into the VHH-metal variant, concentrations were 2 mM and 200 μM for NiCl2 and VHH, respectively. Based on the observed binding constant, this corresponds to a “c-value” of 6.7, which is within the commonly acceptable range for the accurate determination of binding thermodynamics. For competitive titrations, nickel was included in TBS without EDTA at concentrations ranging from 0-10 mM. Competitive VHH/RNase A titration experiments with a “c” value greater than 10 included protein concentrations ranging from 30 μM to 205 μM. Conditions included a 10-fold higher concentration of titrant (VHH). […] These experiments included using a 100-fold higher concentration of titrant (RNase A) relative to VHH. RNase A concentrations were between 150 μM and 800 μM. […] For nickel/VHH titrations, the titrant nickel was dissolved in the appropriate dialysis buffer at a 10× concentration of the VHH. Experiments typically included 27, 10 μL injections with a 240 second delay between each injection. Dilution titrations indicated the absence of significant heats of dilution, consequently, no background dilution heat subtractions were necessary. The binding parameters (K, ΔH°, ΔS°, and n) were determined using the single site binding model using the ITC add-in in Origin version 7 (MicroCal LLC).

[2] = molecular target: T1, bovine pancreatic RNase A; experiment: ITC, 25 C, RNase A binding with 1 mM nickel present
Procedure: (§2) The binding parameters (K, ΔH°, ΔS°, and n) were determined using the single site binding model using the ITC add-in in Origin version 7 (MicroCal LLC). All titrations indicated a 1:1 interaction with observed stoichiometries equal to 1.0 (within 5%).
(§3) ITC experiments were performed using a MicroCal VP-ITC (MicroCal, LLC, Northampton, Mass.). All experiments were performed at 25° C. Proteins were dialyzed against the desired experimental buffer, which included PBS (20 mM NaPhosphate, 150 mM NaCl pH 7.4), TBS (20 mM Tris-HCl, 150 mM NaCl pH 7.4) and TBS-E (20 mM Tris, 150 mM NaCl, 1 mM EDTA, pH 7.4). For direct titration of NiCl₂ into the VHHmetal variant, concentrations were 2 mM and 200 μM for NiCl₂ and VHH, respectively. Based on the observed binding constant, this corresponds to a “cvalue” of 6.7, which is within the commonly acceptable range for the accurate determination of binding thermodynamics (Tellinghuisen, 2008; Wiseman et al. 1989). For competitive titrations, nickel was included in TBS without EDTA at concentrations ranging from 0-10 mM. Competitive VHH/RNase A titration experiments with a “c” value greater than 10 included protein concentrations ranging from 30 μM to 205 μM. Conditions included a 10-fold higher concentration of titrant (VHH). […] These experiments included using a 100-fold higher concentration of titrant (RNase A) relative to VHH. RNase A concentrations were between 150 μM and 800 μM. Extinction coefficients were determined using values determined by the methods described by Pace, et. al. (1995). […] For nickel/VHH titrations, the titrant nickel was dissolved in the appropriate dialysis buffer at a 10× concentration of the VHH. Experiments typically included 27, 10 μL injections with a 240 second delay between each injection. Dilution titrations indicated the absence of significant heats of dilution, consequently, no background dilution heat subtractions were necessary. The binding parameters (K, ΔH°, ΔS°, and n) were determined using the single site binding model using the ITC add-in in Origin version 7 (MicroCal LLC).

[3] = molecular target: T1, bovine pancreatic RNase A; experiment: ITC, pH 7.4
[4] = molecular target: T1, bovine pancreatic RNase A; experiment: ITC, pH 6, PBS
[5] = molecular target: T1, bovine pancreatic RNase A; experiment: ITC, pH 7, PBS
[6] = molecular target: T1, bovine pancreatic RNase A; experiment: ITC, pH 8, TRIS
[7] = molecular target: T1, bovine pancreatic RNase A; experiment: ITC, pH 7.4, PBS
[8] = molecular target: T1, bovine pancreatic RNase A; experiment: ITC, pH 5.5, acetate
[9] = molecular target: T1, bovine pancreatic RNase A; experiment: ITC, pH 5, piperazine
[10] = molecular target: T1, bovine pancreatic RNase A; experiment: ITC, pH profile 8.0 to 4.5
[11] = molecular target: T1, bovine pancreatic RNase A; experiment: ITC, pH 6.5, imidazole
[12] = molecular target: T1, bovine pancreatic RNase A; experiment: ITC, pH 4.5, piperazine
[13] = molecular target: T1, bovine pancreatic RNase A; experiment: ITC, pH 4.74, piperazine
[14] = molecular target: T1, bovine pancreatic RNase A; experiment: ITC, pH 7.4, against wild-type VHH
[15] = molecular target: T1, bovine pancreatic RNase A; experiment: ITC, 25 C, no metal; remark: listed apart in the source
Procedure: (§4) Isothermal titration calorimetry (ITC) was used to evaluate the thermodynamic basis for VHH-metal's dual function. […] As expected, titrations of nickel into wild-type anti-RNase A VHH produced no measurable binding.
(§5) ITC experiments were performed using a MicroCal VP-ITC (MicroCal, LLC, Northampton, Mass.). All experiments were performed at 25° C. Proteins were dialyzed against the desired experimental buffer, which included PBS (20 mM NaPhosphate, 150 mM NaCl pH 7.4), TBS (20 mM Tris-HCl, 150 mM NaCl pH 7.4) and TBS-E (20 mM Tris, 150 mM NaCl, 1 mM EDTA, pH 7.4). For direct titration of NiCl₂ into the VHH-metal variant, concentrations were 2 mM and 200 μM for NiCl2 and VHH, respectively. Based on the observed binding constant, this corresponds to a “c-value” of 6.7, which is within the commonly acceptable range for the accurate determination of binding thermodynamics. For competitive titrations, nickel was included in TBS without EDTA at concentrations ranging from 0-10 mM. Competitive VHH/RNase A titration experiments with a “c” value greater than 10 included protein concentrations ranging from 30 μM to 205 μM. Conditions included a 10-fold higher concentration of titrant (VHH).

[16] = molecular target: T1, bovine pancreatic RNase A; experiment: ITC, 25 C, pH 7.4, no metal
Procedure: as §1

[17] = molecular target: T1, bovine pancreatic RNase A; experiment: ITC, 25 C, no metal, against wild-type VHH
Procedure: as §4, §5

[18] = molecular target: T1, bovine pancreatic RNase A; experiment: ITC, 25 C, RNase A binding with 1 µM nickel present
Procedure: as §2, §3

[19] = molecular target: T1, bovine pancreatic RNase A; experiment: ITC, 25 C, RNase A binding with 10 mM nickel present
Procedure: as §2, §3

[20] = molecular target: T1, bovine pancreatic RNase A; experiment: ITC, 25 C, RNase A binding with 10 µM nickel present
Procedure: as §2, §3

[21] = molecular target: T1, bovine pancreatic RNase A; experiment: ITC, 25 C, RNase A binding with 100 µM nickel present
[22] = molecular target: T1, bovine pancreatic RNase A; experiment: competitive phage ELISA with and without 1 mM metals (Zn2+, Co2+, Ni2+)

-TΔS° [1]: 1.9 kcal/mol
Kd [1]: 19 nM
ΔG° [1]: -10.5 kcal/mol
ΔH° [1]: -12.4 kcal/mol
-TΔS° [2]: 0.9 kcal/mol
Kd [2]: 16 nM
ΔG° [2]: -10.6 kcal/mol
ΔH° [2]: -10.7 kcal/mol
B1: wild-type anti-RNase A VHH (cAb-RN05) (VHH)
VHH: QVQLVESGGGLVQAGGSLRLSCAASGYAYTYIYMGWFRQAPGKEREGVAAMDSGGGGTLYADSVKGRFTISRDKGKNTVYLQMDSLKPEDTATYYCAAGGGYELRDRTYGQWGQGTQVTVSS
notes: Camelid single-domain antibody; Made in E. coli with an N-terminal hexa-His-TEV tag for ITC; also called VHH-wt; wt-VHH

Kd [3]: 91 nM
-TΔS [4]: -8.6 kcal/mol
Kd [4]: 6500 nM
ΔG [4]: -7.07 kcal/mol
ΔH [4]: 1.5 kcal/mol
-TΔS [5]: 0.7 kcal/mol
Kd [5]: 200 nM
ΔG [5]: -9.07 kcal/mol
ΔH [5]: -4.35 kcal/mol
-TΔS [6]: -3.8 kcal/mol
Kd [6]: 100 nM
ΔG [6]: -9.37 kcal/mol
ΔH [6]: -9 kcal/mol
-TΔS [7]: -2.5 kcal/mol
Kd [7]: 200 nM
ΔG [7]: -9.31 kcal/mol
ΔH [7]: -6.84 kcal/mol
Kd [8]: 6300 nM
ΔG [8]: -7.09 kcal/mol
ΔH [8]: 3 kcal/mol
-TΔS [9]: -2.4 kcal/mol
Kd [9]: 12000 nM
ΔG [9]: -7.03 kcal/mol
ΔH [9]: -4.8 kcal/mol
fold decrease of the observed binding constant on decreasing the pH [10]: ~10000 fold
Kd [11]: 400 nM
ΔG [11]: -8.73 kcal/mol
ΔH [11]: -9.44 kcal/mol
-TΔS [12]: 25.4 kcal/mol
ΔG [12]: -5.11 kcal/mol
ΔH [12]: -30 kcal/mol
-TΔS [13]: 6.8 kcal/mol
Kd [13]: 75000 nM
ΔG [13]: -5.62 kcal/mol
ΔH [13]: -12.4 kcal/mol
fold difference of binding affinity from the wild-type value [14]: ≤ 5 fold
B2: VHH#24 (pH clone #24) (VHH)
VHH: QVQLVESGGGLVQAGGSLRLSCAASGYHHTYIYMGWFRQAPGKEREGVAAMDSGGGGTLYADSVKGRFTISRDKGKNTVYLQMDSLKPEDTATYYCAAGGGHHLRDHTYGQWGQGTQVTVSS

Kd [15]: 155 nM
-TΔS° [16]: 9 kcal/mol
Kd [16]: 157 nM
ΔG° [16]: -9.3 kcal/mol
ΔH° [16]: -17.8 kcal/mol
fold decrease in binding affinity against wild type [17]: ~8 fold
ΔΔG° [17]: 1.2 kcal/mol
-TΔS° [18]: 8 kcal/mol
Kd [18]: 160 nM
ΔG° [18]: -9.27 kcal/mol
ΔH° [18]: -17.2 kcal/mol
-TΔS° [2]: 0.09 kcal/mol
Kd [2]: 5640 nM
ΔG° [2]: -7.13 kcal/mol
ΔH° [2]: -7.2 kcal/mol
-TΔS° [19]: 1.3 kcal/mol
Kd [19]: 34000 nM
ΔG° [19]: -6.07 kcal/mol
ΔH° [19]: -7.3 kcal/mol
-TΔS° [20]: 3.6 kcal/mol
Kd [20]: 219 nM
ΔG° [20]: -9.1 kcal/mol
ΔH° [20]: -12.7 kcal/mol
-TΔS° [21]: -1 kcal/mol
Kd [21]: 900 nM
ΔG° [21]: -8.27 kcal/mol
ΔH° [21]: -7 kcal/mol
fold change in IC50 [22]: 1000 fold
B3: VHH-metal (metal sensitive anti-RNase A VHH) (VHH)
VHH: QVQLVESGGGLVQAGGSLRLSCAASGYPHPYLHMGWFRQAPGKEREGVAAMDSGGGGTLYADSVKGRFTISRDKGKNTVYLQMDSLKPEDTATYYCAAGGGYQLRDRTYGHWGQGTQVTVSS
notes: also called Metal-VHH; metal clone VHH
